Values joined by “and” are separate entries in the source; they are usually repeats but may differ in a detail not shown here. Equal values may be shown once.
Each sequence was assayed on MCF10A (assay: 5+ nucleoli phenotype percent effect (relative to siNT 0% and siKIF11 100%); higher = more cells with five or more nucleoli). Details: 20 nM; 72 h.
Description: (§1)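 After 72 h, cells were fixed and stained with Hoechst and anti-fibrillarin, and nucleoli per nucleus were counted with CellProfiler. Values are plate-adjusted percent effect for the one-nucleolus and 5+ nucleoli phenotypes, normalised to siNT (0%) and to the positive controls siNOL11 or siKIF11 (100%), as the mean of biological triplicates. Percent viability is the nuclei count relative to siNT.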
With UUAUCAGAAUCUCCAGGGGUAC [hsa-miR-361-5p] the “5+ nucleoli phenotype percent effect” value was -4.16%. UGGAUAUGAUGACUGAAA [hsa-miR-4791] was tested, and the “5+ nucleoli phenotype percent effect” value was 4.66%. CUGGGCUCGGGACGCGCGGCU [hsa-miR-4674] was tested, and the “5+ nucleoli phenotype percent effect” value was -33.5%. In the case of GACCUGGACAUGUUUGUGCCCAGU [hsa-miR-619], the “5+ nucleoli phenotype percent effect” value is reported as 64.8%. CAGGGCCAGGCACAGAGUAAG [hsa-miR-6895-5p] was tested, and the “5+ nucleoli phenotype percent effect” value was 0.712%. With UGAGACCUCUGGGUUCUGAGCU [hsa-miR-769-5p] the “5+ nucleoli phenotype percent effect” value was 9.63%. In the case of UCCAUUACACUACCCUGCCUCU [hsa-miR-885-5p], the “5+ nucleoli phenotype percent effect” value is reported as -8.23%. ACAAAGUACAGCAUUAGCCUUAG [hsa-miR-3973] was tested, and the “5+ nucleoli phenotype percent effect” value was 0.19%. With AGCUACAUCUGGCUACUGGGU [hsa-miR-222-3p] the “5+ nucleoli phenotype percent effect” value was -9.89%. “UAUGGCUUUUCAUUCCUAUGUGA [hsa-miR-135b-5p]” was tested, and the “5+ nucleoli phenotype percent effect” value was -32.7%. UGUCUUGCAGGCCGUCAUGCA [hsa-miR-431-5p] was tested, and the “5+ nucleoli phenotype percent effect” value was -40.8%. “UACUCUGGAGAGUGACAAUCAUG [hsa-miR-514a-5p]” was tested, and the “5+ nucleoli phenotype percent effect” value was 29.4% and 19%. With CUAGACUGAAGCUCCUUGAGG [hsa-miR-151a-3p] the “5+ nucleoli phenotype percent effect” value was -6.07%. In the case of UGGCUCAGUUCAGCAGGAACAG [hsa-miR-24-3p], the “5+ nucleoli phenotype percent effect” value is reported as -17%. “UGAGCGCCUCGACGACAGAGCCG [hsa-miR-339-3p]” was tested, and the “5+ nucleoli phenotype percent effect” value was 27%. “CCAGAGCAGCCUGCGGUAACAGU [hsa-miR-6501-3p]” was tested, and the “5+ nucleoli phenotype percent effect” value was -17.2%. In the case of “UAAAACUGCAGUUAUUUUUGC [hsa-miR-548ar-3p]”, the “5+ nucleoli phenotype percent effect” value is reported as 38.3%. For AAAACGGUGAGAUUUUGUUUU [hsa-miR-553], the “5+ nucleoli phenotype percent effect” value was 65.7%. With UGACUGCCUCACUGACCACUU [hsa-miR-5002-3p] the “5+ nucleoli phenotype percent effect” value was -20.8%. With UUGCAUAUGUAGGAUGUCCCAU [hsa-miR-448] the “5+ nucleoli phenotype percent effect” value was 34%. For “AUAGCAGCAUAAGCCUGUCUC [hsa-miR-4524b-5p]”, the “5+ nucleoli phenotype percent effect” value was -6.19%. In the case of “GGUGGUUGAGGCUGCAGUAAGU [hsa-miR-1273g-5p]”, the “5+ nucleoli phenotype percent effect” value is reported as 22.4%. For AUCACAUUGCCAGUGAUUACCC [hsa-miR-23c], the “5+ nucleoli phenotype percent effect” value was -6.12%. In the case of AAUCAUUCACGGACAACACUU [hsa-miR-382-3p], the “5+ nucleoli phenotype percent effect” value is reported as 36.3%. With “AAAUAUGAUGAAACUCACAGCUGAG [hsa-miR-4517]” the “5+ nucleoli phenotype percent effect” value was 12.3%. With AUGGUACCCUGGCAUACUGAGU [hsa-miR-1263] the “5+ nucleoli phenotype percent effect” value was -22.2%. GACUAUAGAACUUUCCCCCUCA [hsa-miR-625-3p] was tested, and the “5+ nucleoli phenotype percent effect” value was 19.1%. CGUCAACACUUGCUGGUUUCCU [hsa-miR-505-3p] was tested, and the “5+ nucleoli phenotype percent effect” value was -7.84%. “AGAAUUGCGUUUGGACAAUCAGU [hsa-miR-2964a-3p]” was tested, and the “5+ nucleoli phenotype percent effect” value was -29.2%. In the case of AACUGGAUCAAUUAUAGGAGUG [hsa-miR-1243], the “5+ nucleoli phenotype percent effect” value is reported as 53.3%.

These sequences were tested on MCF10A (assay: percent viability (nuclei count relative to siNT); higher = more viable cells). Details: 20 nM; 72 h.
Description: as §1
For CAGGGCUCAGGGAUUGGAUGGAG [hsa-miR-5088], the percent viability was 77.7%. Sequence “UUCGCCACUUCCCUCCCUGCAG [hsa-miR-6788-3p]” has a percent viability of 89.7%. With “AGGAGGUGGUACUAGGGGCCAGC [hsa-miR-6851-5p]” the percent viability was 15.2%. CUCAGUGACUCAUGUGC [hsa-miR-4276] was tested, and the percent viability was 72.6%. Work on “UCCCUGAGACCCUAACUUGUGA [hsa-miR-125b-5p]” yielded a percent viability of 93.8%. With GGAGAAAUUAUCCUUGGUGUGU [hsa-miR-539-5p] the percent viability was 55.7%. Sequence “CGAGGGGUAGAAGAGCACAGGGG [hsa-miR-6738-5p]” has a percent viability of 75.7%. CUCCAGAGGGAAGUACUUUCU [hsa-miR-520a-5p] gave a percent viability of 34.6%. Work on UCUGUAGCCUGGGAGCAAUGGGGU [hsa-miR-3137] yielded a percent viability of 13.2%. UGGGGCUCAGCGAGUUU [hsa-miR-4283] showed a percent viability of 17.3%. Work on CUCAAGUAGUCUGACCAGGGGA [hsa-miR-4465] yielded a percent viability of 67%. UGGCAGGGAGGCUGGGAGGGG [hsa-miR-1207-5p] showed a percent viability of 24.4%. CACCCGGCUGUGUGCACAUGUGC [hsa-miR-941] was tested, and the percent viability was 56.3%. Sequence AUCACAUUGCCAGGGAUUUCC [hsa-miR-23a-3p] has a percent viability of 126%. Sequence CGGCCCGGGCUGCUGCUGUUCCU [hsa-miR-1538] has a percent viability of 144%. For GCAUUGUGCAGGGCUAUCA [hsa-miR-4289], the percent viability was 35%. AUGGCAUCGUCCCCUGGUGGCU [hsa-miR-4642] showed a percent viability of 31.3%. CCAGAGGUGGGGACUGAG [hsa-miR-4257] was tested, and the percent viability was 24.6%. In the case of “UGCAUCACAGCCUUUGGCCCUAG [hsa-miR-7112-3p]”, the percent viability is reported as 45.8%. In the case of CGUGUCUUCUGGCUUGAU [hsa-miR-4711-3p], the percent viability is reported as 17.8%. “UUGUGGGGUUGGAGAGCUGGCUG [hsa-miR-6796-5p]” gave a percent viability of 17.2%. AUACACAUACACGCAACACACAU [hsa-miR-466] gave a percent viability of 38.7%. Work on ACGCCCUUCCCCCCCUUCUUCA [hsa-miR-1249] yielded a percent viability of 85.3%. In the case of GAGACAGGUUCAUGCUGCUA [hsa-miR-4524b-3p], the percent viability is reported as 25.8%. “GUCCCUCUCCAAAUGUGUCUUG [hsa-miR-642a-5p]” gave a percent viability of 120%. “UUGCCACACUGCAACACCUUACA [hsa-miR-3064-3p]” was tested, and the percent viability was 39.1%. UAGUGGUCAGAGGGCUUAUGA [hsa-miR-6718-5p] was tested, and the percent viability was 18.9%. With “AGGGACUUUCAGGGGCAGCUGU [hsa-miR-365b-5p]” the percent viability was 36.2%. For AGAAGUGGCUAAUAAUAUUGA [hsa-miR-4795-5p], the percent viability was 34.5%. UUAUCAGAAUCUCCAGGGGUAC [hsa-miR-361-5p] gave a percent viability of 62.4%. Work on UGGAUAUGAUGACUGAAA [hsa-miR-4791] yielded a percent viability of 71.5%. For CUGGGCUCGGGACGCGCGGCU [hsa-miR-4674], the percent viability was 31.3%. GACCUGGACAUGUUUGUGCCCAGU [hsa-miR-619] was tested, and the percent viability was 128%. With CAGGGCCAGGCACAGAGUAAG [hsa-miR-6895-5p] the percent viability was 41.8%. In the case of UGAGACCUCUGGGUUCUGAGCU [hsa-miR-769-5p], the percent viability is reported as 47.4%. With UCCAUUACACUACCCUGCCUCU [hsa-miR-885-5p] the percent viability was 71.4%. With ACAAAGUACAGCAUUAGCCUUAG [hsa-miR-3973] the percent viability was 29.3%. In the case of AGCUACAUCUGGCUACUGGGU [hsa-miR-222-3p], the percent viability is reported as 71.6%. With “UAUGGCUUUUCAUUCCUAUGUGA [hsa-miR-135b-5p]” the percent viability was 47.9%. Work on UGUCUUGCAGGCCGUCAUGCA [hsa-miR-431-5p] yielded a percent viability of 28.5%. “UACUCUGGAGAGUGACAAUCAUG [hsa-miR-514a-5p]” was tested, and the percent viability was 56.4% and 66.9%. In the case of CUAGACUGAAGCUCCUUGAGG [hsa-miR-151a-3p], the percent viability is reported as 66.5%. Sequence UGGCUCAGUUCAGCAGGAACAG [hsa-miR-24-3p] has a percent viability of 26.5%. For “UGAGCGCCUCGACGACAGAGCCG [hsa-miR-339-3p]”, the percent viability was 82.2%. “CCAGAGCAGCCUGCGGUAACAGU [hsa-miR-6501-3p]” was tested, and the percent viability was 35.1%. In the case of “UAAAACUGCAGUUAUUUUUGC [hsa-miR-548ar-3p]”, the percent viability is reported as 122%. With AAAACGGUGAGAUUUUGUUUU [hsa-miR-553] the percent viability was 103%. In the case of UGACUGCCUCACUGACCACUU [hsa-miR-5002-3p], the percent viability is reported as 50.5%. For UUGCAUAUGUAGGAUGUCCCAU [hsa-miR-448], the percent viability was 75.6%. In the case of “AUAGCAGCAUAAGCCUGUCUC [hsa-miR-4524b-5p]”, the percent viability is reported as 21%. Sequence “GGUGGUUGAGGCUGCAGUAAGU [hsa-miR-1273g-5p]” has a percent viability of 49.2%. AUCACAUUGCCAGUGAUUACCC [hsa-miR-23c] gave a percent viability of 93.5%. With AAUCAUUCACGGACAACACUU [hsa-miR-382-3p] the percent viability was 97.5%. “AAAUAUGAUGAAACUCACAGCUGAG [hsa-miR-4517]” was tested, and the percent viability was 24%. For AUGGUACCCUGGCAUACUGAGU [hsa-miR-1263], the percent viability was 24.8%. GACUAUAGAACUUUCCCCCUCA [hsa-miR-625-3p] was tested, and the percent viability was 104%. Sequence CGUCAACACUUGCUGGUUUCCU [hsa-miR-505-3p] has a percent viability of 33.8%. In the case of “AGAAUUGCGUUUGGACAAUCAGU [hsa-miR-2964a-3p]”, the percent viability is reported as 28.5%. Work on AACUGGAUCAAUUAUAGGAGUG [hsa-miR-1243] yielded a percent viability of 174%.
